Laboratory results reported in patent US20250163136A1 (FRAUNHOFER GESELLSCHAFT ZUR F RDERUNG DER ANGEWANDTEN …, published 2025).
Numbered stars: 1 amine (or outer) side, 2 acyl side, 3 side chain; on linkers, the order of the positions; unused ones are H or OH. Square brackets hold non-standard residues; d marks the D form. * marks the point of attachment. Biotin = O=C1N[C@H]2[C@H](CS[C@H]2CCCCC(=O)*)N1; βAsp = O=C(O)[C@H](CC(=O)[*:2])N[*:1]; PEG = not defined here

T1: isoD38-TTR(35-43)-PEG-Biotin (human, reading uncertain)
T1 construct: KAAXDTWEP; also called isoaspartate-containing TTR(35-43)-peptide
T1 peptide: {Biotin-PEG}-KAA[βAsp]DTWEP-NH2

T2: TTR(35-43)-PEG-Biotin (human, reading uncertain)
T2 construct: also called non-modified peptide TTR(35-43)
T2 peptide: {Biotin-PEG}-KAADDTWEP-NH2

B1: monoclonal antibody 2F2 (antibody, V domains shown)
VH: DVQLVESGGGLVQPGGSRKLSCAASGFTFSSFAMHWVRQAPDKGLEWVAFISSGSNTIYYADTVKGRFTVSRDNPKNTLFLQMTSLRSEDTAMYYCASNSYYGMDYWGQGTSVTVSS
VL: NIMMTQSPSSLAVSAGEKVTMSCKSSQSVLYSSNQKNYLAWYQQKPGQSPKLLIYWASTRESGVPDRFTGSGSGTDFTLTISSVQAEDLAVYYCHQYLSSRTFGAGTKLELKR
notes: also called isoD38-TTR-specific antibody 2F2; TTR mAb 2F2
B2: monoclonal antibody 4D4 (antibody, V domains shown)
VH: QVQLQQSGAELMKPGASVKISCKAPGNTFSSRWIEWVKERPGHGLEWIGEIFPGNGNTNYNEKFKGKATFTADTSSNTAYIQFSSLASEDSGVYYCVSEDYWGQGTLVTVSS
VL: DIQMTQSPASLSASVGETVTITCRTSGNIRNSLAWYRQKQGKSPQLLVFNGKTLADGVPSRFSGSGSGTQYSLKINSLQPEDLGTYYCQHFWNIPFTFGSGTKLEIKR
notes: also called isoD38-TTR-specific antibody 4D4; TTR mAb 4D4

How the values were obtained:
[1] = molecular target: T3, aggregated Aβ(1-42) with confirmed isoAsp-content (isoD7-Aβ(1-42)) (X at position 7 is L-isoAsp); assay: dot blot
T3 construct: Aggregated amyloid fibrils; dot blot lanes 8 and 9 (with m11); also called isoD7-AB; aggregated Aβ1-42 (verified isoD content)
T3 sequence (peptide, as listed by the source): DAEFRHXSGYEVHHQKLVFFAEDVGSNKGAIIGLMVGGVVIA
Protocol: (§1) 0.5 μg of recombinantly expressed TTR proteins (TTRwt (SEQ ID NO: 1), TTR-V30M (SEQ ID NO: 7), or TTR-V122I (SEQ ID NO: 8)), ATTR fibrils or 0.5 μg of either freshly dissolved Aβ(1-42) (SEQ ID NO: 9) or aggregated Aβ(1-42) with confirmed isoAsp-content (SEQ ID NO: 10) were spotted on nitrocellulose membranes. Membranes were blocked for 1 hour in blocking solution (5% (w/v) milk powder in TBS+0.05% (v/v) Tween-20 (Carl Roth)). […] Alkaline phosphatase-conjugated, anti-mouse or rabbit IgG antibodies (abeam) in combination with chromogenic substrates BCIP and NBT (Carl Roth) were subsequently used for detection.

[2] = molecular target: T4, freshly dissolved Aβ(1-42); assay: dot blot
T4 construct: Dot blot lanes 8 and 9 (with m12); also called monomeric peptides of Aβ
T4 sequence (peptide, as listed by the source): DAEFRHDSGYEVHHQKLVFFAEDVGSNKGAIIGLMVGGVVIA
Protocol: as §1

[3] = molecular target: T1, isoD38-TTR(35-43)-PEG-Biotin; assay: SPR, BIAcore 3000, 25 °C; antibody captured on goat anti-mouse IgG (CM5 chip), peptide injected (five consecutive injections, 2 nM to 512 nM)
Protocol: (§2) Antibody binding kinetics to TTR(35-43)-PEG-Biotin (SEQ ID NO: 5) and isoD38-TTR(35-43)-PEG-Biotin (SEQ ID NO: 6) were analyzed by using SPR on a BIAcore 3000 device at 25° C. For this purpose, the surface of a CM5 sensor chip (Cytiva) was modified with a goat anti-mouse antibody using NHS/EDC chemistry. To immobilize the anti-mouse IgG, the carboxymethylated dextran surface of the sensor chip was activated by mixing 0.1 M N-hydroxysuccinimide (NHS) with 0.4 M N-ethyl-N′-(dimethylaminopropyl) carbodiimide hydrochloride (EDC) 1:1. EDC/NHS was applied to the sensor chip with a flow rate of 20 μL/min for 7 minutes. Goat anti-mouse IgG was diluted to 50 μg/mL in 10 mM sodium acetate, pH 5.5, and injected for 2×4 minutes contact time with a flow rate of 30 μL/min. Deactivation was done by applying 1 M ethanolamine pH 8.5 with a flow rate of 10 μL/min for 2×7 minutes contact time. About 20000 RU of the goat anti-mouse antibody were immobilized onto the chip surface.

TTR(35-43)-PEG-Biotin [4] = molecular target: T2, TTR(35-43)-PEG-Biotin; assay: SPR, BIAcore 3000, 25 °C; antibody captured on goat anti-mouse IgG (CM5 chip), peptide injected (five consecutive injections, 512 nM to 131 µM)
Protocol: as §2

TTR(35-43)-PEG-Biotin [5] = molecular target: T2, TTR(35-43)-PEG-Biotin; assay: SPR, BIAcore 3000, 25 °C; antibody captured on goat anti-mouse IgG (CM5 chip), peptide injected (multicycle kinetics, 1 µM to 200 µM)
Protocol: as §2

[6] = molecular target: T1, isoD38-TTR(35-43)-PEG-Biotin; assay: SPR, BIAcore 3000, 25 °C; antibody captured on goat anti-mouse IgG (CM5 chip), peptide injected (multicycle kinetics, 10 nM to 100 µM)
Protocol: as §2

Binder	binding result [1]	binding result [2]	Kd [3]	Kd (TTR(35-43)-PEG-Biotin [4])	Kd (TTR(35-43)-PEG-Biotin [5])	Kd [6]
B1	no binding (tested: 0.5 µg peptide spotted; antibody 1 µg/mL)	no binding (tested: 0.5 µg peptide spotted; antibody 1 µg/mL)	1.55 nM	719 nM		
B2	no binding (tested: 0.5 µg peptide spotted; antibody 1 µg/mL)	no binding (tested: 0.5 µg peptide spotted; antibody 1 µg/mL)			29 µM	124 nM
